pKd: −log10 of the molar value.
Molecular target: FITC-labeled aP-C18 peptide (not stated (P. horikoshii and P. furiosus aP1 were both used))
Test: fluorescence polarisation

pKd	Substance
5.36	aABCE1-ΔN74 (domain or fragment)
4.17	aABCE1 I170S (enzyme)
4.08	aABCE1 V174S (enzyme)
5.20	aABCE1 V219S (enzyme)
4.51	aABCE1 R227A (enzyme)
4.33	aABCE1 A223S (enzyme)

— article PMC6125642
